For data set [1], the system named is Balb/c mice. Kind of data set: Immunization of mice with β2gpi preparations, titers against native human β2gpi. It is filed as in vivo. Particulars: four injections of 15 μg antigen. The protocol:
Female BalB/C cAnNHSd (Harlan) 7-9 weeks were housed in filtertop cages in groups of 5 mice per group. After approximately one week of adjustment to the environment, pre-immune sera were drawn. On the start of the first week, mice were given either 100 μl plasma (150 μg/ml) β2-Glycoprotein 1,100 μl alkyl-β2-Glycoprotein I (150 μg/ml) or 100 μl of a mixture of 150 μg/ml of 82-Glycoprotein I with 9.33 μM cardiolipin (CL-β2gpi). This latter sample was prepared by pre-incubating 400 μg/ml of 62-GPI with 25 μM of cardiolipin vesicles for at least 10 minutes at RT after mixing the sample by pipetting; afterwards samples were diluted to 150 μg/ml. […]
Sera were analyzed for antibodies against unmodified native (coated) β2-GPI. […] Antibody titers were determined by adding pooled sera of each experimental group (n=5) in three-fold serial dilutions (starting from 1:30, 50 μl/well) to plates coated with native human β2gpi. […] The plates were stained for approximately 5 minutes using 100 μL/well of TMB substrate (Biosource Europe, Nivelles, Belgium), the reaction was stopped with 50 μL/well of 2 M H2SO4 and read at 450 nm on a Spectramax340 microplate reader. The absorbance values were plotted against log dilution. […] For comparison, the dilution that yielded a residual absorbance after background subtraction of 0.1 was arbitrarily taken as the titer of the various sera.

Data set [2] relates to Balb/c mice. The data set is described as follows: Immunization of mice with β2gpi preparations, serum binding to murine β2gpi. It counts as in vivo. The note with it: 100-fold diluted sera. The protocol:
Female BalB/C cAnNHSd (Harlan) 7-9 weeks were housed in filtertop cages in groups of 5 mice per group. After approximately one week of adjustment to the environment, pre-immune sera were drawn. On the start of the first week, mice were given either 100 μl plasma (150 μg/ml) β2-Glycoprotein 1,100 μl alkyl-β2-Glycoprotein I (150 μg/ml) or 100 μl of a mixture of 150 μg/ml of 82-Glycoprotein I with 9.33 μM cardiolipin (CL-β2gpi). This latter sample was prepared by pre-incubating 400 μg/ml of 62-GPI with 25 μM of cardiolipin vesicles for at least 10 minutes at RT after mixing the sample by pipetting; afterwards samples were diluted to 150 μg/ml. […] All dilutions were made freshly in TBS and kept on ice. Injections were given intravenously in the tail veins of the mice and given on Mondays and Fridays of the first and third week. Blood was drawn three days prior to the experiment, and on Wednesdays of week 2 and 4 by puncture of vena Saphena. Blood was collected in Easycollect tubes, with Z serum clot activator. Sera were prepared by centrifugation in a tabletop centrifuge, with a rotor diameter of 7 cm, at 3800 rpm for 10 minutes (slow start and stop) and stored at −20° C. before analysis.
In this way, it was determined whether immunizations of mice with human β2gpi elicits a humoral auto-immune response against murine β2gpi.

The nature of data set [3]: Thioflavin T fluorescence. It counts as physicochemical. As for the experimental part: Fluorescence of ThT-protein/peptide adducts was measured as follows. […] Fluorescence was measured at 485 nm upon excitation at 435 nm. Background signals from buffer, buffer with ThT and protein/peptide solution without ThT were subtracted from corresponding measurements with protein solution incubated with ThT. […] Fluorescence was measured in triplicate on a Hitachi F-4500 fluorescence spectrophotometer (Ltd., Tokyo, Japan).
Formulated protein therapeutics were obtained from the local hospital pharmacy and were used as supplied by the manufacturers. […] Lyophilized therapeutics were dissolved according to the manufacturers recommendations. […] Enhancement in fluorescence of ThT and Congo red was measured with all formulated protein therapeutics. […]
To prepare structurally altered ovalbumin (OVA) with amyloid cross-β structure conformation, purified OVA (Sigma, A-7641, lot 071k7094) was heated to 85° C. […] Native OVA (nOVA) and heat-denatured OVA (dOVA) were tested in the ThT fluorescence assay and in the Plg-activation assay. In the fluorescence assay and in the Plg-activation assay, 25 and 100 μg ml^−1 nOVA and dOVA were tested, respectively. […] In the ThT-fluorescence assay 25 μg ml^−1 nMSA and alkyl-MSA were tested, and in the Plg-activation assay 100 μg ml^−1 was tested. The presence of aggregates or fibrils was analyzed using TEM. […]

In data set [4] the test system is Balb/c mice. Kind of data set: Immunization of Balb/c mice with ovalbumin and amyloid-like ovalbumin. It counts as in vivo. The note with it: without adjuvant. The protocol:
Eight to ten weeks old female Balb/c mice are immunized with OVA according to two immunization regimes (Central Animal Laboratories, Utrecht University, The Netherlands). Pre-immune serum was collected prior to the immunizations. In one regime two groups of five mice were subcutaneously injected five consecutive days per week, for three consecutive weeks. Doses comprised 10 μg native OVA or heat-denatured OVA for each injection. Alternatively, according to the second protocol, three groups of five mice were injected once intraperitoneally with doses comprising 5 μg nOVA, 5 μg OVA or 5 μg native OVA mixed 1:1 with complete Freund's adjuvant (CFA). Each week, blood was taken. After three weeks, a second dose was given. Incomplete Freund's adjuvant (IFA) was used instead of CFA. Blood was taken after one week after the start of the immunization. Antibody titers in sera were determined and sera were analyzed for the presence of cross-β structure conformation specific antibodies. For this purpose, nOVA was coated onto wells of 96-wells ELISA plates and incubated with dilution series of sera. Sera of the groups of five mice were pooled prior to the analyses. Plates were washed and subsequently incubated with peroxidase-conjugated rabbit anti-mouse immunoglobulins (RAMPO, P0260, DAKOCytomation, Glostrup, Denmark). Plates were subsequently developed with tetramethylbenzidine (TMB) substrate. […]

The target in data set [5] is T1, human fibronectin finger 4,5 (Fn F4,5) fragment (Homo sapiens, UniProt P02751).
T1 construct: human fibronectin finger 4,5 (Fn F4,5) fragment; made in house; host or cells: HEK293E cells, transient transfection, protein purified from the medium
Kind of data set: ELISA, binding of fibronectin F4,5 to coated (mis)folded proteins. Particulars: coated protein, FIG. 7D-H. As for the experimental part:
(§1) The plates were blocked using Blocking reagent (Roche 1112589). A dilution series of the protein of interest was applied to the coated proteins and wells were subsequently washed using TBS-T (50 mM Tris pH 7.3, 150 mM NaCl and 0.1% Tween20). Bound protein is detected by the FLAG-tag using 1:3000 anti-FLAG-HRP (Sigma A-8592) in PBS-T, or by 1:1000 Ni-NTA-HRP (Qiagen 34530) in PBS-T. The HRP reaction Is performed using the TMB substrate (Biosource 4501103 or Tebu Bio 101TMB100-500), stopped using 10% H2SO4 and absorbance was measured at 450 nm.
On the technique in general: An ELISA detects its analyte on a solid surface through an enzyme-linked reagent.

The subject of data set [6] is human tissue-type plasminogen activator finger EGF (tPA F-EGF) fragment. Kind of data set: ELISA, binding of tPA F-EGF to coated (mis)folded proteins. The note with it: coated protein, FIG. 7A, I. The protocol:
as §1

The source of these data is patent US20080207488A1, “Method for Detecting Peptides Comprising a Cross-B Structure” (priority 2005, published 2008).

T1 sequence (P02751 182-276 limits assumed): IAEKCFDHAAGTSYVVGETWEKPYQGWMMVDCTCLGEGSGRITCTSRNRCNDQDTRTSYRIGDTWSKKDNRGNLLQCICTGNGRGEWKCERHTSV
Sequence of human tissue-type plasminogen activator finger EGF (tPA F-EGF) fragment (P00750 39-120 limits assumed): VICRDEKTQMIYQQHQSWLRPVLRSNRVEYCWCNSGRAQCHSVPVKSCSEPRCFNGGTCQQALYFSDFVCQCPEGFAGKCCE

B1: alkyl-β2gpi: reduced and alkylated human β2-glycoprotein I (protein, UniProt P02749 20-345, looked up)
Beta-2-glycoprotein 1: GRTCPKPDDLPFSTVVPLKTFYEPGEEITYSCKPGYVSRGGMRKFICPLTGLWPINTLKCTPRVCPFAGILENGAVRYTTFEYPNTISFSCNTGFYLNGADSAKCTEEGKWSPELPVCAPIICPPPSIPTFATLRVYKPSAGNNSLYRDTAVFECLPQHAMFGNDTITCTTHGNWTKLPECREVKCPFPSRPDNGFVNYPAKPTLYYKDKATFGCHDGYSLDGPEEIECTKLGNWSAMPSCKASCKVPVKKATVVYQGERVKIQEKFKNGMLHGDKVSFFCKNKEKKCSYTEDAQCIDGTIEVPKCFKEHSSLAFWKTDASDVKPC
modifications: reduced and alkylated
notes: reduced and alkylated human β2-glycoprotein I
For the molecule B1, the “humoral immune response compared to native β2gpi” value in the data set on Balb/c mice [1] is reported as “far higher humoral immune responses”. In addition, the “titers against mouse self-β2gpi” value in the data set with Balb/c mice [2] was “higher titers against mouse self-β2gpi”. Also, the “Thioflavin T fluorescence of modified β2gpi” value in data set [3] (compared with native β2gpi) is reported as “enhanced Thioflavin T fluorescence”.

B2: dOVA: ovalbumin heat-denatured at 85° C., amyloid-like (protein)
chain: GSIGAASMEFCFDVFKELKVHHANENIFYCPIAIMSALAMVYLGAKDSTRTQINKVVRFDKLPGFGDSIEAQCGTSVNVHSSLRDILNQITKPNDVYSFSLASRLYAEERYPILPEYLQCVKELYRGGLEPINFQTAADQARELINSWVESQTNGIIRNVLQPSSVDSQTAMVLVNAIVFKGLWEKAFKDEDTQAMPFRVTEQESKPVQMMYQIGLFRVASMASEKMKILELPFASGTMSMLVLLPDEVSGLEQLESIINFEKLTEWTSSNVMEERKIKVYLPRMKMEEKYNLTSVLMAMGITDVFSSSANLSGISSAESLKISQAVHAAHAEINEAGREVVGSAEAGVDAASVSEEFRADHPFLFCIKHIATNAVLFFGRCVSP
Take B2: in the data set on Balb/c mice [4], the “anti-nOVA antibody titers in pooled sera” value is listed as “higher antibody titers”. The “affinity of fibronectin F4,5 (detection anti-FLAG HRP)” value in data set [5] was “clear difference in binding affinity”. Also, in data set [3] (25 μg ml^−1), the “ThT fluorescence enhancement of native and denatured proteins” value is given as “filtration through a 0.2 μm filter does not reduce the enhancement of ThT fluorescence”. Also, the “binding of tPA F-EGF” value in data set [6] is listed as “Much lower binding”.
